The Kd is the concentration at which binding is half-saturated. Read a high Kd as a looser complex.

T1: Cbx7.V1 (tags removed, used for FP and ITC) (human, UniProt O95931 7-66, E8D (printed as the back-mutation D8E) | Q9D | V10I (printed as the …))
T1 construct: chromodomain of human Cbx7 (Cbx7-chromo), UniProt O95931; source: E. coli BL21(DE3), purified (Ni-NTA; tags removed with TEV protease)
T1 sequence: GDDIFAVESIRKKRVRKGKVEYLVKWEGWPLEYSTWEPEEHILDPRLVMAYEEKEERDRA

T2: wild-type Cbx7 chromodomain (tags removed) (human, UniProt O95931 7-66)
T2 construct: chromodomain of human Cbx7 (Cbx7-chromo), UniProt O95931; also called Cbx7.wt; source: E. coli BL21(DE3), purified (Ni-NTA; tags removed with TEV protease)
T2 sequence: T1 sequence with D2E, D3Q, I4V, E27K, L31P, E32K

T3: Cbx7 Q9D chromodomain (tags removed) (human, UniProt O95931 7-66, Q9D)
T3 construct: chromodomain of human Cbx7 (Cbx7-chromo), UniProt O95931; source: E. coli BL21(DE3), purified (Ni-NTA; tags removed with TEV protease)
T3 sequence: T1 sequence with D2E, I4V, E27K, L31P, E32K

T4: Cbx7 K33E chromodomain (tags removed) (human, UniProt O95931 7-66, K33E)
T4 construct: chromodomain of human Cbx7 (Cbx7-chromo), UniProt O95931; source: E. coli BL21(DE3), purified (Ni-NTA; tags removed with TEV protease)
T4 sequence: T1 sequence with D2E, D3Q, I4V, L31P, E32K

T5: Cbx7.VD chromodomain, Q9D/K33E (tags removed) (human, UniProt O95931 7-66, Q9D | K33E)
T5 construct: chromodomain of human Cbx7 (Cbx7-chromo), UniProt O95931; source: E. coli BL21(DE3), purified (Ni-NTA; tags removed with TEV protease)
T5 sequence: T1 sequence with D2E, I4V, L31P, E32K

T6: wild-type Cbx2 chromodomain (tags removed) (human, UniProt Q14781 9-62)
T6 construct: chromodomain of human Cbx2; also called Cbx2.wt; source: E. coli BL21(DE3), purified (Ni-NTA; tags removed with TEV protease)
T6 sequence: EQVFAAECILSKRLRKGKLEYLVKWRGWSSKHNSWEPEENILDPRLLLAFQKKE

T7: wild-type Cbx8 chromodomain (tags removed) (human, UniProt Q9HC52 8-61)
T7 construct: chromodomain of human Cbx8; also called Cbx8.wt; source: E. coli BL21(DE3), purified (Ni-NTA; tags removed with TEV protease)
T7 sequence: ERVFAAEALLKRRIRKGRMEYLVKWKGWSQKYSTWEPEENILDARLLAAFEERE

T8: Cbx7.V1 chromodomain variant (protein used for BLI) (human, UniProt O95931 7-66, E8D (printed as the back-mutation D8E) | Q9D | V10I (printed as the …))
T8 construct: chromodomain of human Cbx7 with the six substitutions of the phage-selected variant V1; residues numbered on full-length Cbx7; for BLI they were probably still on the protein; source: E. coli BL21(DE3), purified (Ni-NTA)
T8 sequence: T1 sequence

T9: Cbx7.V1 back-mutant D8E (human, UniProt O95931 7-66, Q9D | V10I (printed as the back-mutation I10V) | K33E | P37L (printed as the …))
T9 construct: chromodomain of human Cbx7, variant V1 with residue 8 put back to the wild type; residues numbered on full-length Cbx7; Tags probably still on the protein in BLI (removal is told for FP and ITC only); source: E. coli BL21(DE3), purified (Ni-NTA)
T9 sequence: T1 sequence with D2E

T10: Cbx7.V1 back-mutant D9Q (human, UniProt O95931 7-66, E8D (printed as the back-mutation D8E) | V10I (printed as the back-mutation …))
T10 construct: chromodomain of human Cbx7, variant V1 with residue 9 put back to the wild type; residues numbered on full-length Cbx7; Tags probably still on the protein in BLI (removal is told for FP and ITC only); source: E. coli BL21(DE3), purified (Ni-NTA)
T10 sequence: T1 sequence with D3Q

T11: Cbx7.V1 back-mutant I10V (human, UniProt O95931 7-66, E8D (printed as the back-mutation D8E) | Q9D | K33E | P37L (printed as the …))
T11 construct: chromodomain of human Cbx7, variant V1 with residue 10 put back to the wild type; residues numbered on full-length Cbx7; Tags probably still on the protein in BLI (removal is told for FP and ITC only); source: E. coli BL21(DE3), purified (Ni-NTA)
T11 sequence: T1 sequence with I4V

T12: Cbx7.V1 back-mutant L37P (human, UniProt O95931 7-66, E8D (printed as the back-mutation D8E) | Q9D | V10I (printed as the …))
T12 construct: chromodomain of human Cbx7, variant V1 with residue 37 put back to the wild type; residues numbered on full-length Cbx7; Tags probably still on the protein in BLI (removal is told for FP and ITC only); source: E. coli BL21(DE3), purified (Ni-NTA)
T12 sequence: T1 sequence with L31P

T13: Cbx7.V1 back-mutant E38K (human, UniProt O95931 7-66, E8D (printed as the back-mutation D8E) | Q9D | V10I (printed as the …))
T13 construct: chromodomain of human Cbx7, variant V1 with residue 38 put back to the wild type; residues numbered on full-length Cbx7; Tags probably still on the protein in BLI (removal is told for FP and ITC only); source: E. coli BL21(DE3), purified (Ni-NTA)
T13 sequence: T1 sequence with E32K

B1: H3K9me3 peptide, N-terminal FITC (peptide)
chain: ARTKQTARKSTGGKAPR
modifications: trimethyl-lysine at K9; fluorescein isothiocyanate (FITC) at the N-terminus
B2: Cbx6.VD chromodomain, Asp9/Glu33 (tags removed) (domain or fragment)
chain: GEDVFAAESIIKRRIRKGRIEYLVKWEGWAIKYSTWEPEENILDSRLIAAFEQKERERELYGP
B3: H3K27me3 peptide, N-terminal FITC (peptide)
chain: KQLATKAARKSAPATGGVK
modifications: trimethyl-lysine at K27; fluorescein isothiocyanate (FITC) at the N-terminus
B4: H3K27me3 peptide, biotinylated (peptide)
chain: KQLATKAARKSAPATGGVK
modifications: trimethyl-lysine at K27; biotin followed by an aminohexanoic acid linker at the N-terminus

What all share (conditions): both partners purified
The target of assay [1] is T1, Cbx7.V1 (tags removed, used for FP and …). The experiment in a line: fluorescence polarisation; 0.5 nM FITC-labelled peptide; chromodomains 200-0.2 µM (wild type) or 50 µM-50 nM (Cbx7.V1 and all Cbx.VDs); 30 min at 25 °C; 25 mM HEPES pH 7.5, 150 mM NaCl, 1 mM DTT, 0.01% TritonX-100; one-site total binding model.
The target in assay [2] is T2, wild-type Cbx7 chromodomain (tags …). The assay is described as above.
Assay [3] has as its target T3, Cbx7 Q9D chromodomain (tags removed). The description is as above.
For assay [4], the target named is T4, Cbx7 K33E chromodomain (tags removed). The description is as above.
Assay [5] deals with T5, Cbx7.VD chromodomain, Q9D/K33E (tags …). The description is as above.
The target of assay [6] is T14, wild-type Cbx1 chromodomain (tags removed) (human, UniProt P83916 20-73).
T14 construct: chromodomain of human Cbx1; also called Cbx1.wt; source: E. coli BL21(DE3), purified (Ni-NTA; tags removed with TEV protease)
The description is as above.

Assay [7] addresses T15, wild-type Cbx3 chromodomain (tags removed) (human, UniProt Q13185 29-86).
T15 construct: chromodomain of human Cbx3; also called Cbx3.wt; source: E. coli BL21(DE3), purified (Ni-NTA; tags removed with TEV protease)
The description is as above.

Assay [8] deals with T16, wild-type Cbx5 chromodomain (tags removed) (human, UniProt P45973 18-75).
T16 construct: chromodomain of human Cbx5; also called Cbx5.wt; source: E. coli BL21(DE3), purified (Ni-NTA; tags removed with TEV protease)
The description is as above.

Assay [9] addresses T6, wild-type Cbx2 chromodomain (tags …). Described as above.
Assay [10] has as its target T7, wild-type Cbx8 chromodomain (tags …). The assay is described as above.
The target in assay [11] is B1. The assay is described as above.
Assay [12] addresses T8, Cbx7.V1 chromodomain variant (protein …). Nature of the assay: BLI; biotinylated peptide on streptavidin biosensor tips, chromodomain in solution at 5 or 1 µM; 25 °C; 25 mM HEPES pH 7.0, 150 mM NaCl, 1 mg/ml BSA, 0.01% Tween-20; steady-state fit, Langmuir model; values of single replicates. On the technique in general: BLI is a label-free optical method that tracks binding on a fibre tip over time.

For a further assay, the target named is T9, Cbx7.V1 back-mutant D8E. The description is as above.
The target of the next assay is T10, Cbx7.V1 back-mutant D9Q. Described as above.
For the next assay, the target named is T11, Cbx7.V1 back-mutant I10V. Described as above.
For the next assay, the target named is T12, Cbx7.V1 back-mutant L37P. Described as above.
A further assay concerns the target T13, Cbx7.V1 back-mutant E38K. Described as above.

Positions count from the first letter of the chain named. “And” between values parts separate entries of the source, which are not always exact repeats. Identical values can stand only once.

T16 sequence (P45973 18-75, looked up): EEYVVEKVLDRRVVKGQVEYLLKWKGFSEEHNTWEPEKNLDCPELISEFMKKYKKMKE
T14 sequence (P83916 20-73, looked up): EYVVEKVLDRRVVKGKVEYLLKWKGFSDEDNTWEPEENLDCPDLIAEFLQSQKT
T15 sequence (Q13185 29-86, looked up): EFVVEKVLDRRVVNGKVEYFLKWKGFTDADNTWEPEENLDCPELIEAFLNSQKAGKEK

On to B1, for which the Kd in assay [1] is 7 µM; in [2], 30 µM; in assay [3], 10 µM; in assay [4] it was 20 µM; in assay [5], 8 µM; in [6], 0.5 µM. In addition, the dissociation constant Kd in [7] was 2 µM; in [8], 5 µM; in [9], more than 200 µM; in [10], more than 200 µM.

B2 yielded a Kd in assay [11] of more than 50 µM.

Consider B3, for which the dissociation constant Kd in assay [1] came out at 4 µM; in assay [2] it was 110 µM; in [3], 100 µM; in [4], 20 µM; in assay [5], 5 µM; in assay [9] it was 100 µM. In assay [10], this molecule returned a dissociation constant (Kd) of more than 200 µM.

As to B4, the Kd in assay [12] was 2 µM and 2.2 µM; with Cbx7.V1 back-mutant D8E it was 1.9 µM and 2.2 µM; in the assay with Cbx7.V1 back-mutant D9Q, 1.6 µM and 2.7 µM; in the assay with Cbx7.V1 back-mutant I10V, 2.8 µM and 1.6 µM; with Cbx7.V1 back-mutant L37P it was 2.8 µM and 2.2 µM; with Cbx7.V1 back-mutant E38K, 1.5 µM and 1.7 µM.

The values above are taken from paper PMC9666628 (Nature Communications, 2022).
